Changes are numbered by the printed parent chain.
B1: 124 (protein)
chain: MTTRTRILTAFLSLLAANACAADAAPAAPHTVVLRAARMFDGASGKLVDHPQLTIVGNKIVRIAQGDKAEVPAGAEVVDLGDATLLPGFIDAHVHLSGQSSDNWYGDFFDNMMRFPAEQALYGAYYARITLEAGFTSVRDVGSTDWVALGLRNAIDAGKVPGPRMLVSNYAVGSTGGHADQDPIPPHKLPLAGPLQGVCNGPEECRAAVRYQIKYGANVIKFMPSGGVLSLSDPVDAPELSQDEMNAVIGESHAWGRKVAAHAHGDKAAKMAVAAGVDSIEHGSFIEDDTLRAMKAKNVYLVPTISAIAHVEEKIGYFPPVIAEKGRAAAAHLRQTFRHAVQIGVPIALGTDAGVGAHGSNAREFRYMVENGLTPAQALLAGTANAARLLGTFDRVGTLEAGKLADVVAVPGNPIADITVTERPLFVMKDGVVVRRDAVR
modifications: exemplary polypeptide
B2: 157 (protein)
chain: B1 chain with I184V, Y317T, F318Y
modifications: exemplary polypeptide
B3: 155 (protein)
chain: B1 chain with I184V, I308A, Y317T
modifications: exemplary polypeptide
B4: 125 (protein)
chain: B1 chain with Y317T, F318Y
modifications: exemplary polypeptide
B5: 153 (protein)
chain: B1 chain with A171P, Y317T, F318Y
modifications: exemplary polypeptide
B6: 152 (protein)
chain: B1 chain with A171P, I308V, Y317T
modifications: exemplary polypeptide
B7: 151 (protein)
chain: B1 chain with A171P, I308A, Y317T
modifications: exemplary polypeptide
B8: 148 (protein)
chain: B1 chain with A179S, Y317T
modifications: exemplary polypeptide
B9: 127 (protein)
chain: B1 chain with K258Y, Y317T, G391R
modifications: exemplary polypeptide
B10: 137 (protein)
chain: B1 chain with S97N, Y317T
modifications: exemplary polypeptide
B11: 159 (protein)
chain: B1 chain with I308A, Y317T, F318Y
modifications: exemplary polypeptide
B12: 144 (protein)
chain: B1 chain with T144E, Y317T
modifications: exemplary polypeptide
B13: 139 (protein)
chain: B1 chain with S97T, Y317T
modifications: exemplary polypeptide
B14: 143 (protein)
chain: B1 chain with T144D, Y317T
modifications: exemplary polypeptide
B15: 154 (protein)
chain: B1 chain with A171P, Y317T, G354A
modifications: exemplary polypeptide
B16: 145 (protein)
chain: B1 chain with T144P, Y317T
modifications: exemplary polypeptide
B17: 156 (protein)
chain: B1 chain with I184V, I308V, Y317T
modifications: exemplary polypeptide
B18: 128 (protein)
chain: B1 chain with A36C, L85C, Y317T
modifications: exemplary polypeptide
B19: 141 (protein)
chain: B1 chain with G142A, Y317T
modifications: exemplary polypeptide
B20: 158 (protein)
chain: B1 chain with I184V, Y317T, G354A
modifications: exemplary polypeptide
B21: 146 (protein)
chain: B1 chain with T144R, Y317T
modifications: exemplary polypeptide
B22: 136 (protein)
chain: B1 chain with S97D, Y317T
modifications: exemplary polypeptide
B23: 150 (protein)
chain: B1 chain with A171P, I184V, Y317T
modifications: exemplary polypeptide
B24: 138 (protein)
chain: B1 chain with S97P, Y317T
modifications: exemplary polypeptide
B25: 140 (protein)
chain: B1 chain with S97V, Y317T
modifications: exemplary polypeptide

Test: OTA detoxification activity assay (specific activity, fluorescence reduction ex/em 390/450 nm)
Type: biochemical
Details: pH 6.0; SEQ ID NO: 1 = 100%
In short: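 Recombinant enzyme preparation with 200 ng/mL OTA in 100 mM sodium phosphate, at pH 6.0 and pH 7.5, 37° C. Degradation followed as the fall in fluorescence at ex/em 390/450 nm. Specific activity taken from the initial linear slope; one unit degrades 1 μmol OTA per min at a starting OTA of […].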

Row | Molecule | Specific OTA detoxification activities in % compared to the enzyme of SEQ ID NO: 1, pH 6.0
1 | B1 | 87%
2 | B2 | 78%
3 | B3 | 116%
4 | B4 | 58%
5 | B5 | 72%
6 | B6 | 65%
7 | B7 | 75%
8 | B8 | 40%
9 | B9 | 78%
10 | B10 | 86%
11 | B11 | 84%
12 | B12 | 78%
13 | B13 | 141%
14 | B14 | 86%
15 | B15 | 38%
16 | B16 | 101%
17 | B17 | 144%
18 | B18 | 67%
19 | B19 | 138%
20 | B20 | 157%
21 | B21 | 172%
22 | B22 | 64%
23 | B23 | 89%
24 | B24 | 46%
25 | B25 | 118%

Same assay, conditions: pH 7.5; SEQ ID NO: 1 = 100%

Row | Molecule | Specific OTA detoxification activities in % compared to the enzyme of SEQ ID NO: 1, pH 7.5
26 | B1 | 78%
27 | B2 | 63%
28 | B3 | 124%
29 | B4 | 94%
30 | B5 | 77%
31 | B6 | 74%
32 | B7 | 86%
33 | B8 | 19%
34 | B9 | 82%
35 | B10 | 93%
36 | B11 | 93%
37 | B12 | 95%
38 | B13 | 88%
39 | B14 | 84%
40 | B15 | 38%
41 | B16 | 90%
42 | B17 | 109%
43 | B18 | 73%
44 | B19 | 123%
45 | B20 | 92%
46 | B21 | 112%
47 | B22 | 48%
48 | B23 | 62%
49 | B24 | 29%
50 | B25 | 120%

Test: Enzymatic activity comparison: activity remaining after 65° C. for 10 min at pH 6.0, relative to SEQ ID NO: 1
Type: physicochemical
Details: not given
Method: To compare the temperature behavior and thermostability of selected enzymes to one another, enzyme was incubated at 65° C. for 10 min at pH 6.0. The enzymatic activity remaining after incubation was compared to the remaining activity of the enzyme of SEQ ID NO: 1 after incubation, the latter being set to 100%, see Table 16.

Row | Molecule | Enzymatic activity remaining after incubation, compared to SEQ ID NO: 1 (set to 100%)
51 | B1 | 42%
52 | B2 | 73%
53 | B3 | 35%
54 | B4 | 100%
55 | B5 | 34%
56 | B6 | 38%
57 | B7 | 30%
58 | B8 | 35%
59 | B9 | 64%
60 | B10 | 48%
61 | B11 | 30%
62 | B12 | 28%
63 | B13 | 40%
64 | B14 | 21%
65 | B15 | 32%
66 | B16 | 47%
67 | B17 | 34%
68 | B18 | 84%
69 | B19 | 55%
70 | B20 | 9%
71 | B21 | 45%
72 | B22 | 36%
73 | B23 | 22%
74 | B24 | 27%
75 | B25 | 34%
